Source: patent publication US20260167710A1 (GlaxoSmithKline, published 2026)

Experiments:
[1] = target: T1, cynomolgus IL-33 (cynomolgus monkey, UniProt A0A2K5W3I1 112-269); test: MSD-SET solution equilibrium titration, 25 C, n = 3
T1 construct: also called cyno IL-33; cynomolgus monkey IL-33
T1 sequence: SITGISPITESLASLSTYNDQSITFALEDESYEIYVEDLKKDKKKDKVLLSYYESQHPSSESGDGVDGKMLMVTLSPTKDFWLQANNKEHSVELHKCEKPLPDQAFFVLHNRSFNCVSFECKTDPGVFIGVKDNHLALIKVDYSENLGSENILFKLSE

[2] = target: T2, human IL-33 (human, Biotinylated in Example 2; the site is not stated.); test: cell-based or functional assay
T2 chain: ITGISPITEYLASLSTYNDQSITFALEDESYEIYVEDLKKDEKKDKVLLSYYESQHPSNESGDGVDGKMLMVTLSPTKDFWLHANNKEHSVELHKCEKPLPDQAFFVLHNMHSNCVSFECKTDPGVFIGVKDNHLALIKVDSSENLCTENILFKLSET

[3] = target: T2, human IL-33; test: cell-based or functional assay
[4] = target: T2, human IL-33; test: cell-based or functional assay
[5] = target: T2, human IL-33; test: MSD-SET solution equilibrium titration, 25 C
[6] = target: T2, human IL-33; test: cell-based or functional assay

B1: 22A06-458 (antibody, human IgG1, kappa)
heavy: QVQLVQSGAEVKKPGASVKVSCKASGYTFISYGMHWVRQAPGQGLEWMGEINPHGGSTSYAQKFKGRVTMTRDTSTSTVYMELSSLRSEDTAVYYCARPSAAYSHYLGIDLWGRGTLVTVSSASTKGPSVFPLAPSSKSTSGGTAALGCLVKDYFPEPVTVSWNSGALTSGVHTFPAVLQSSGLYSLSSVVTVPSSSLGTQTYICNVNHKPSNTKVDKKVEPKSCDKTHTCPPCPAPELLGGPSVFLFPPKPKDTLYITREPEVTCVVVDVSHEDPEVKFNWYVDGVEVHNAKTKPREEQYNSTYRVVSVLTVLHQDWLNGKEYKCKVSNKALPAPIEKTISKAKGQPREPQVYTLPPSRDELTKNQVSLTCLVKGFYPSDIAVEWESNGQPENNYKTTPPVLDSDGSFFLYSKLTVDKSRWQQGNVFSCSVMHEALHNHYTQKSLSLSPGK
light: DIQMTQSPSSVSASVGDRVTITCRASQGISSWLAWYQQKPGKAPKLLIYAASRLQSGVPSRFSGSGSGTDFTLTISSLQPEDFATYYCQQANVFPLTFGGGTKVEIKRTVAAPSVFIFPPSDEQLKSGTASVVCLLNNFYPREAKVQWKVDNALQSGNSQESVTEQDSKDSTYSLSSTLTLSKADYEKHKVYACEVTHQGLSSPVTKSFNRGEC
[1]
  Kd: 0.0275 nM
[2]
  IC50, inhibition of 10 ng/mL human IL-33 induced IL-6 production, mouse bone marrow-derived mast cells: ~0.566 nM
  IC50, inhibition of 10 ng/mL human IL-33 induced IL-13 production, mouse bone marrow-derived mast cells: ~0.567 nM
  IC50, inhibition of 10 ng/mL human IL-33 induced IL-18 production, mouse bone marrow-derived mast cells: ~0.631 nM
  IC50, inhibition of 10 ng/mL human IL-33 induced TNF-α production, mouse bone marrow-derived mast cells: ~0.581 nM
  pIC50, inhibition of 10 ng/mL human IL-33 induced IL-6 production, mouse bone marrow-derived mast cells: ~9.25
  pIC50, inhibition of 10 ng/mL human IL-33 induced IL-13 production, mouse bone marrow-derived mast cells: ~9.25
  pIC50, inhibition of 10 ng/mL human IL-33 induced IL-18 production, mouse bone marrow-derived mast cells: ~9.2
  pIC50, inhibition of 10 ng/mL human IL-33 induced TNF-α production, mouse bone marrow-derived mast cells: ~9.24
[3]
  IC50, inhibition of 1 ng/mL human IL-33 induced IL-6 production, mouse bone marrow-derived mast cells: 0.0312 nM
  IC50, inhibition of 1 ng/mL human IL-33 induced IL-13 production, mouse bone marrow-derived mast cells: 0.028 nM
  IC50, inhibition of 1 ng/mL human IL-33 induced IL-18 production, mouse bone marrow-derived mast cells: 0.0613 nM
  IC50, inhibition of 1 ng/mL human IL-33 induced TNF-α production, mouse bone marrow-derived mast cells: 0.0374 nM
  pIC50, inhibition of 1 ng/mL human IL-33 induced IL-6 production, mouse bone marrow-derived mast cells: 10.5
  pIC50, inhibition of 1 ng/mL human IL-33 induced IL-13 production, mouse bone marrow-derived mast cells: 0.55
  pIC50, inhibition of 1 ng/mL human IL-33 induced IL-18 production, mouse bone marrow-derived mast cells: 10.2
  pIC50, inhibition of 1 ng/mL human IL-33 induced TNF-α production, mouse bone marrow-derived mast cells: 10.4
[4]
  IC50, inhibition of 100 ng/mL IL-33/IL-12 induced IFN-γ secretion from whole blood, pre-complexed, Mean: 3.9 nM
  IC50, inhibition of 100 ng/mL IL-33/IL-12 induced IFN-γ secretion from whole blood, pre-complexed, donor #91232: 2.79 nM
  IC50, inhibition of 100 ng/mL IL-33/IL-12 induced IFN-γ secretion from whole blood, pre-complexed, donor #91845: 5.75 nM
  IC50, inhibition of 100 ng/mL IL-33/IL-12 induced IFN-γ secretion from whole blood, pre-complexed, donor #91865: 0.88 nM
  IC50, inhibition of 100 ng/mL IL-33/IL-12 induced IFN-γ secretion from whole blood, pre-complexed, donor #92023: 3.43 nM
  IC50, inhibition of 100 ng/mL IL-33/IL-12 induced IFN-γ secretion from whole blood, pre-complexed, donor #92186: 3.01 nM
  IC50, inhibition of 100 ng/mL IL-33/IL-12 induced IFN-γ secretion from whole blood, pre-complexed, donor #92187: 4.75 nM
  IC50, inhibition of 100 ng/mL IL-33/IL-12 induced IFN-γ secretion from whole blood, pre-complexed, donor #92257: 2.66 nM
  IC50, inhibition of 100 ng/mL IL-33/IL-12 induced IFN-γ secretion from whole blood, pre-complexed, donor #92258: 7.9 nM
  pIC50, inhibition of 100 ng/mL IL-33/IL-12 induced IFN-γ secretion from whole blood, pre-complexed, Mean: 8.48
  pIC50, inhibition of 100 ng/mL IL-33/IL-12 induced IFN-γ secretion from whole blood, pre-complexed, donor #91232: 8.55
  pIC50, inhibition of 100 ng/mL IL-33/IL-12 induced IFN-γ secretion from whole blood, pre-complexed, donor #91845: 8.24
  pIC50, inhibition of 100 ng/mL IL-33/IL-12 induced IFN-γ secretion from whole blood, pre-complexed, donor #91865: 9.05
  pIC50, inhibition of 100 ng/mL IL-33/IL-12 induced IFN-γ secretion from whole blood, pre-complexed, donor #92023: 8.46
  pIC50, inhibition of 100 ng/mL IL-33/IL-12 induced IFN-γ secretion from whole blood, pre-complexed, donor #92186: 8.52
  pIC50, inhibition of 100 ng/mL IL-33/IL-12 induced IFN-γ secretion from whole blood, pre-complexed, donor #92187: 8.32
  pIC50, inhibition of 100 ng/mL IL-33/IL-12 induced IFN-γ secretion from whole blood, pre-complexed, donor #92257: 8.58
  pIC50, inhibition of 100 ng/mL IL-33/IL-12 induced IFN-γ secretion from whole blood, pre-complexed, donor #92258: 8.1
[5]
  Kd: 0.0033 nM
[6]
  IC50, inhibition of IL-33 (15 pM) induced superoxide generation from eosinophils, pre-complexed, Mean: 19.6 pM
